Laboratory results published in article PMC9482650, “Quantitative fragmentomics allow affinity mapping of interactomes” (Nature Communications, 2022).

T1: PDZRN3_1, Q9UPQ7
T1 sequence (Q9UPQ7 244-349, limits assumed, looked up): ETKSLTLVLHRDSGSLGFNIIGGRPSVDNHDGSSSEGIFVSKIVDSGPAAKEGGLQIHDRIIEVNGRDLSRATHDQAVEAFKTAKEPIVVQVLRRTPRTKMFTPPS

T2: MPP7, Q5T2T1
T2 sequence (Q5T2T1 134-230, limits assumed, looked up): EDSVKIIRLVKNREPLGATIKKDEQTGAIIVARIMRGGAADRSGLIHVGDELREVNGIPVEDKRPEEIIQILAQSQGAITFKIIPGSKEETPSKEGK

T3: ARHGEF11, O15085
T3 sequence (O15085 42-136, limits assumed, looked up): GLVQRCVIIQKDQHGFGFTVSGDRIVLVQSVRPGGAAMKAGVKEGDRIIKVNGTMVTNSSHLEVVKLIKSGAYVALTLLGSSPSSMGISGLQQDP

T4: GRIP1_7, Q9Y3R0
T4 sequence (Q9Y3R0 999-1096, limits assumed, looked up): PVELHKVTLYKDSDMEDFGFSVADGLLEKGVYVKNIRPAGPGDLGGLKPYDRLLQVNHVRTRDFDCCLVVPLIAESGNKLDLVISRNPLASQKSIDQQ

T5: PTPN13_1, Q12923
T5 sequence (Q12923 1088-1188, limits assumed, looked up): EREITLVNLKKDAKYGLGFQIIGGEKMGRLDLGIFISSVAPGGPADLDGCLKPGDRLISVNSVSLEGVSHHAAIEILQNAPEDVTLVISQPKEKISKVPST

T6: MPP6, Q9NZW5
T6 sequence (Q9NZW5 125-219, limits assumed, looked up): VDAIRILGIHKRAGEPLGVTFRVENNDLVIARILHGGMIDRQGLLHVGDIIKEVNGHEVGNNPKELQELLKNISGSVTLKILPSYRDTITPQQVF

T7: GRIP1_5, Q9Y3R0
T7 sequence (Q9Y3R0 568-668, limits assumed, looked up): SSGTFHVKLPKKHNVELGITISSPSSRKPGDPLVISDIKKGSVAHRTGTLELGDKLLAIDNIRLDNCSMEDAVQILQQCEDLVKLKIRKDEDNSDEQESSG

T8: PCLO, Q9Y6V0
T8 sequence (Q9Y6V0 4491-4600, limits assumed, looked up): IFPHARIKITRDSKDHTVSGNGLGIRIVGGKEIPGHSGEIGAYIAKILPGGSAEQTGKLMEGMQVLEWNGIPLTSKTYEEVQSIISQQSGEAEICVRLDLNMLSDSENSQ

T9: LIN7A, O14910
T9 sequence (O14910 103-200, limits assumed, looked up): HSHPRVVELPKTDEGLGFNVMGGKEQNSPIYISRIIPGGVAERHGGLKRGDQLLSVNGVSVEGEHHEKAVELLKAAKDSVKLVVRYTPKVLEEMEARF

T10: SYNJ2BP, P57105
T10 sequence (P57105 8-110, limits assumed, looked up): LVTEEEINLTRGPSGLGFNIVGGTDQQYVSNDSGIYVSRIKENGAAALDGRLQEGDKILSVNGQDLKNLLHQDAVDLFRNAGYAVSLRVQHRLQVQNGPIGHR


Tests used:
Experiment in all cases: holdup assay
Set-up in all cases: key: below the threshold = too weak to quantify, mostly under pKd 3.1 to 4
Conditions in all cases: plain residues with an end cap or a label only (N-terminal biotin on a linker: ado-ado)
MAST2, Q6P0Q8 = biological target: MAST2, Q6P0Q8
MAST2, Q6P0Q8, sequence (Q6P0Q8 1099-1202): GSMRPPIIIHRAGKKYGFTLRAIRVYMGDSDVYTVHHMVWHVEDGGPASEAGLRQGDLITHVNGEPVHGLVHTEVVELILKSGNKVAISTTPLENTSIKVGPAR

Inadl_4, Q8NI35 = biological target: Inadl_4, Q8NI35
Inadl_4, Q8NI35, sequence (Q8NI35 547-651): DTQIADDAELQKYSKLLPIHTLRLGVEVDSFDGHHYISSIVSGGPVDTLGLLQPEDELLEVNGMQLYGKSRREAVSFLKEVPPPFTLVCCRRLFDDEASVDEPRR

PDZRN3_1, Q9UPQ7 = biological target: T1, PDZRN3_1, Q9UPQ7
MAGI2_3, Q86UL8 = biological target: MAGI2_3, Q86UL8
MAGI2_3, Q86UL8, sequence (Q86UL8 600-682): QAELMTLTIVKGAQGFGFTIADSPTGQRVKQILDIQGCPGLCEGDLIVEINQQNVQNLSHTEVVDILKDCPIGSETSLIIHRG

DLG4_2, P78352 = biological target: DLG4_2, P78352
DLG4_2, P78352, sequence (P78352 155-259): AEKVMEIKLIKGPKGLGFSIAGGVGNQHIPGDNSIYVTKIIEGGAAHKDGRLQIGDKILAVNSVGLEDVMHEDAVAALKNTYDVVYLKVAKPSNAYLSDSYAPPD

NHERF4_2, Q86UT5 = biological target: NHERF4_2, Q86UT5
NHERF4_2, Q86UT5, sequence (Q86UT5 220-308): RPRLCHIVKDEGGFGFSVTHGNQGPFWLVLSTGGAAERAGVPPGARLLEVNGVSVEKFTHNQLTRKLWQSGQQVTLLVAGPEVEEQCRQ

MAGI1_1, Q96QZ7 = biological target: MAGI1_1, Q96QZ7
MAGI1_1, Q96QZ7, sequence (Q96QZ7 1-106): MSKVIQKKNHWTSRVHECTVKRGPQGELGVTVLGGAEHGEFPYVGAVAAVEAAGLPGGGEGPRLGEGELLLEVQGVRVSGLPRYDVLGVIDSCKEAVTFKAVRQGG

MPP7, Q5T2T1 = biological target: T2, MPP7, Q5T2T1
GRID2IP_1, A4D2P6 = biological target: GRID2IP_1, A4D2P6
GRID2IP_1, A4D2P6, sequence (A4D2P6 1-87): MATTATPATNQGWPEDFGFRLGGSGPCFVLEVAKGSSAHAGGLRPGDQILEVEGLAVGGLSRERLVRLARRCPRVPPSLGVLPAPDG

GRIP2_3, Q9C0E4 = biological target: GRIP2_3, Q9C0E4
GRIP2_3, Q9C0E4, sequence (Q9C0E4 238-339): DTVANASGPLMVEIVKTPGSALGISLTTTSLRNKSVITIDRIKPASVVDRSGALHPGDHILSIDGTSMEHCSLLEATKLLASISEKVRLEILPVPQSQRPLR

MAGI2_5, Q86UL8 = biological target: MAGI2_5, Q86UL8
MAGI2_5, Q86UL8, sequence (Q86UL8 915-1017): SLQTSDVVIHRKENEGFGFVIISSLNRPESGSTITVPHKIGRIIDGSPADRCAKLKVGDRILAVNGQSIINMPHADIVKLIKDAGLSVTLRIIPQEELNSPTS

ARHGEF11, O15085 = biological target: T3, ARHGEF11, O15085
GIPC2, Q8TF65 = biological target: GIPC2, Q8TF65
GIPC2, Q8TF65, sequence (Q8TF65 112-203): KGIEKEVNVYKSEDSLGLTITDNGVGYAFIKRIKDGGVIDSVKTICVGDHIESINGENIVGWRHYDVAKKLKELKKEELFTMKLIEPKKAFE

AHNAK1, Q09666 = biological target: AHNAK1, Q09666
AHNAK1, Q09666, sequence (Q09666 4-100): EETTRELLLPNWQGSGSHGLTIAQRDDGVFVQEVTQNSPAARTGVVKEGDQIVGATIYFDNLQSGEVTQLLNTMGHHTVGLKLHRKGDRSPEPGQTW

SCRIB_2, Q14160 = biological target: SCRIB_2, Q14160
SCRIB_2, Q14160, sequence (Q14160 857-960): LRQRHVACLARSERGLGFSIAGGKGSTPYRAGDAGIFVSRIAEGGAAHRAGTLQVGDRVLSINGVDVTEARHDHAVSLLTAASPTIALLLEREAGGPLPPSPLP

GRASP, Q7Z6J2 = biological target: GRASP, Q7Z6J2
GRASP, Q7Z6J2, sequence (Q7Z6J2 96-193): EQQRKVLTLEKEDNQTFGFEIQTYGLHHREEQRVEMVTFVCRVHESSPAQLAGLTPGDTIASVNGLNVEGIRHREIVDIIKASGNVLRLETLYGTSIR

FRMPD2_1, Q68DX3 = biological target: FRMPD2_1, Q68DX3
FRMPD2_1, Q68DX3, sequence (Q68DX3 770-861): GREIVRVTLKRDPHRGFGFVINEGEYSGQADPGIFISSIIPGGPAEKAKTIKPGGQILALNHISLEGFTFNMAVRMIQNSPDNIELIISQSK

GRIP1_7, Q9Y3R0 = biological target: T4, GRIP1_7, Q9Y3R0
PTPN13_1, Q12923 = biological target: T5, PTPN13_1, Q12923
MPP6, Q9NZW5 = biological target: T6, MPP6, Q9NZW5
GRIP1_5, Q9Y3R0 = biological target: T7, GRIP1_5, Q9Y3R0
GRIP2_6, Q9C0E4 = biological target: GRIP2_6, Q9C0E4
GRIP2_6, Q9C0E4, sequence (Q9C0E4 648-740): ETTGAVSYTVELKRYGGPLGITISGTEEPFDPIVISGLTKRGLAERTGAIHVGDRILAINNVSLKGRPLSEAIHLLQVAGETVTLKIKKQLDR

PCLO, Q9Y6V0 = biological target: T8, PCLO, Q9Y6V0
MAGI1_2, Q96QZ7 = biological target: MAGI1_2, Q96QZ7
MAGI1_2, Q96QZ7, sequence (Q96QZ7 456-580): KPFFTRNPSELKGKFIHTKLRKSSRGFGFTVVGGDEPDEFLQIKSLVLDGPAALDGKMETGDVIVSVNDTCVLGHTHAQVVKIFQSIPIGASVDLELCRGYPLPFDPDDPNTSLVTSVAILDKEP

LIN7A, O14910 = biological target: T9, LIN7A, O14910
SYNJ2BP, P57105 = biological target: T10, SYNJ2BP, P57105
HTRA1, Q92743 = biological target: HTRA1, Q92743
HTRA1, Q92743, sequence (Q92743 360-477): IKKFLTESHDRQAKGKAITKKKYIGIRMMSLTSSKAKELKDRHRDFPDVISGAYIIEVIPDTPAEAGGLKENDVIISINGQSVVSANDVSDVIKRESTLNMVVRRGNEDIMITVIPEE

| pKd (MAST2, Q6P0Q8) | pKd (Inadl_4, Q8NI35) | pKd (PDZRN3_1, Q9UPQ7) | pKd (MAGI2_3, Q86UL8) | pKd (DLG4_2, P78352) | pKd (NHERF4_2, Q86UT5) | pKd (MAGI1_1, Q96QZ7) | pKd (MPP7, Q5T2T1) | pKd (GRID2IP_1, A4D2P6) | pKd (GRIP2_3, Q9C0E4) | pKd (MAGI2_5, Q86UL8) | pKd (ARHGEF11, O15085) | pKd (GIPC2, Q8TF65) | pKd (AHNAK1, Q09666) | pKd (SCRIB_2, Q14160) | pKd (GRASP, Q7Z6J2) | pKd (FRMPD2_1, Q68DX3) | pKd (GRIP1_7, Q9Y3R0) | pKd (PTPN13_1, Q12923) | pKd (MPP6, Q9NZW5) | Binder | other results |
| --- | --- | --- | --- | --- | --- | --- | --- | --- | --- | --- | --- | --- | --- | --- | --- | --- | --- | --- | --- | --- | --- |
| 5.35 | below the threshold | 4.17 | 3.61 | 4.93 | below the threshold | below the threshold | below the threshold | below the threshold | below the threshold | 4.38 | 5 | below the threshold | below the threshold | 4.18 | 4.72 | 3.93 | below the threshold | below the threshold | 3.7 | FHSIKQSTAV [CRHR1, P34998] | pKd (GRIP1_5, Q9Y3R0): below the threshold; pKd (GRIP2_6, Q9C0E4): below the threshold; pKd (PCLO, Q9Y6V0): below the threshold; pKd (MAGI1_2, Q96QZ7): 5.05; pKd (LIN7A, O14910): below the threshold; pKd (SYNJ2BP, P57105): 5.21; pKd (HTRA1, Q92743): below the threshold |
| 4.92 | below the threshold | 3.52 | 3.57 | 5.85 | below the threshold | 3.61 | below the threshold | below the threshold | 3.51 | 3.63 | 4.38 | below the threshold | below the threshold | 3.49 | 3.95 | 3.54 | 3.53 | below the threshold | below the threshold | ATKDKKITTV [EXOC4, Q96A65] | pKd (GRIP1_5, Q9Y3R0): below the threshold; pKd (GRIP2_6, Q9C0E4): below the threshold; pKd (PCLO, Q9Y6V0): below the threshold; pKd (MAGI1_2, Q96QZ7): 4.91; pKd (LIN7A, O14910): 3.52; pKd (SYNJ2BP, P57105): 4.14; pKd (HTRA1, Q92743): 4.6 |
